# In patent publication US20030017568A1, “Smooth muscle myosin phosphatase associated kinase” (priority 2001, published 2003):
# B1: rN-ZIP^1-320 kinase: recombinant 38 kDa GST-fusion protein of the N-terminal region (1-320) of ZIP kinase, expressed in E. coli, constitutively active (protein, UniProt O43293 1-320, looked up, fragment)
# chain: MSTFRQEDVEDHYEMGEELGSGQFAIVRKCRQKGTGKEYAAKFIKKRRLSSSRRGVSREEIEREVNILREIRHPNIITLHDIFENKTDVVLILELVSGGELFDFLAEKESLTEDEATQFLKQILDGVHYLHSKRIAHFDLKPENIMLLDKNVPNPRIKLIDFGIAHKIEAGNEFKNIFGTPEFVAPEIVNYEPLGLEADMWSIGVITYILLSGASPFLGETKQETLTNISAVNYDFDEEYFSNTSELAKDFIRRLLVKDPKRRMTIAQSLEHSWIKAIRRRNVRGEDSGRKPERRRLKTTRLKEYTIKSHSSLPPNNSYA
# modifications: GST fusion
# Tested on: permealized rabbit longitudinal ileum smooth muscle strips
# Experiment: Force in permeabilized rabbit longitudinal ileum smooth muscle strips (Ca2+-sensitization)
# Procedure: Instead, when rN-ZIP^1-320 kinase is added a 40% increase in muscular force is produced at the same submaximal calcium concentration.
molecule,measurement,setting,value
B1,Increase in muscular force,at the same submaximal calcium concentration,40%
same,Contraction in the absence of calcium,"permeabilized ileum strips, no calcium",does not cause contraction
